{
  "source": "paper PMC10681723",
  "about": "“The N-terminus of Spt16 anchors FACT to MCM2–7 for parental histone recycling” (Nucleic Acids Research, 2023)",
  "binders": {"B1": {"name": "GST-tagged Mcm2HBD (residues 1–200) (domain or fragment, yeast, UniProt P29469 1-200, looked up)", "chain": "MSDNRRRRREEDDSDSENELPPSSPQQHFRGGMNPVSSPIGSPDMINPEGDDNEVDDVPDIDEVEEQMNEVDLMDDNMYEDYAADHNRDRYDPDQVDDREQQELSLSERRRIDAQLNERDRLLRNVAYIDDEDEEQEGAAQLDEMGLPVQRRRRRRQYEDLENSDDDLLSDMDIDPLREELTLESLSNVKANSYSEWITQ", "notes": "also called GST-Mcm2HBD; source: E. coli BL21(DE3) CodonPlus RIL, pGEX4T-1, purified (Glutathione Sepharose)"}},
  "molecular_target": "Recombinant Saccharomyces cerevisiae histone H3/H4 (Saccharomyces cerevisiae, UniProt P61830 1-136; P02309 1-103)",
  "experiment": "pull-down; 2 μg GST-Mcm2HBD on Glutathione Sepharose; 0.1, 0.2 and 0.4 μg histone H3/H4 in 0.4 ml buffer A150 (25 mM Tris pH 7.5, 1 mM EDTA, 0.01% NP-40, 150 mM NaCl), 6 h, 4°C; CBB staining",
  "conditions": "both partners purified",
  "data": [
    {"binder": "B1", "values": [
      {"measurement": "binding result", "value": "binds"}
    ]}
  ]
}
